Molecular target: the molecule itself
Experiment: blue native PAGE (BN-PAGE) of native, heat shocked and bis-ANS treated GRP94; self-association

B1: GRP94 (glucose regulated protein of 94 kDa) purified from porcine pancreas (other, UniProt Q29092 22-804, looked up)
chain: EDEVDVDGTVEEDLGKSREGSRTDDEVVQREEEAIQLDGLNASQIRELREKSEKFAFQAEVNRMMKLIINSLYKNKEIFLRELISNASDALDKIRLISLTDENALAGNEELTVKIKCDKEKNLLHVTDTGVGMTREELVKNLGTIAKSGTSEFLNKMAEAQEDGQSTSELIGQFGVGFYSAFLVADKVIVTSKHNNDTQHIWESDSNEFSVIADPRGNTLGRGTTITLVLKEEASDYLELDTIKNLVKKYSQFINFPIYVWSSKTETVEEPMEEEEAAKEEKEESDDEAAVEEEEEEKKPKTKKVEKTVWDWELMNDIKPIWQRPSKEVEDDEYKAFYKSFSKESDDPMAYIHFTAEGEVTFKSILFVPTSAPRGLFDEYGSKKSDYIKLYVRRVFITDDFHDMMPKYLNFVKGVVDSDDLPLNVSRETLQQHKLLKVIRKKLVRKTLDMIKKIADEKYNDTFWKEFGTNIKLGVIEDHSNRTRLAKLLRFQSSHHPSDITSLDQYVERMKEKQDKIYFMAGSSRKEAESSPFVERLLKKGYEVIYLTEPVDEYCIQALPEFDGKRFQNVAKEGVKFDESEKSKENREAVEKEFEPLLNWMKDKALKDKIEKAVVSQRLTESPCALVASQYGWSGNMERIMKAQAYQTGKDISTNYYASQKKTFEINPRHPLIRDMLRRVKEDEDDKTVSDLAVVLFETATLRSGYLLPDTKAYGDRIERMLRLSLNIDPDAKVEEEPEEEPEETTEDTTEDTEQDDDEEMDAGADEEEQETSETSTAEKDEL
notes: also called gp96; ERp99
- binding result: binds
